Results published in FireProtDB (doi:10.1021/bi00252a018).

B1: Subtilisin inhibitor, P01006 (parent)
chain: MRNTGAGPSPSVSRPPPSAAPLSGAALAAPGDAPSALYAPSALVLTVGKGVSATTAAPERAVTLTCAPGPSGTHPAAGSACADLAAVGGDLNALTRGEDVMCPMVYDPVLLTVDGVWQGKRVSYERVFSNECEMNAHGSSVFAF

Variants of: B1
Settings: Streptomyces albogriseolus; pH 2.9; Thermal; DSC; glycine 25 mM; reversible: yes (70-85%); structure 3SSI; whole UniProt chain shown

Question: For MRNTGAGPSPSVSRPPPSAAPLSGAALAAPGDAPSALYAPSALVLTVGKGVSATTAAPERAVTLTCAPGPSGTHPAAGSACADLAAVGGDLNALTRGEDVMCPMVYDPVLLTVNGVWQGKRVSYERVFSNECEMNAHGSSVFAF [D114N], which Tm is on record?
Answer: 42.3 °C

Question: And the “change of melting temperature, mutant - wild type (higher = more stable)” value (“change of melting temperature, mutant” for short)?
Answer: -2.17 °C

Same assay, conditions: Streptomyces albogriseolus; pH 2.94; Thermal; DSC; glycine 25 mM; reversible: yes (70-85%); structure 3SSI; whole UniProt chain shown

Question: Which Tm does the source give for MRNTGAGPSPSVSRPPPSAAPLSGAALAAPGDAPSALYAPSALVLTVGKGVSATTAAPERAVTLTCAPGPSGTHPAAGSACADLAAVGGDLNALTRGEDVMCPMVYDPVLLTVNGVWQGKRVSYERVFSNECEMNAHGSSVFAF [D114N] here?
Answer: 44.8 °C

Question: And the “change of melting temperature, mutant” value?
Answer: 0.88 °C

Same assay, conditions: Streptomyces albogriseolus; pH 2.98; Thermal; DSC; glycine 25 mM; reversible: yes (70-85%); structure 3SSI; whole UniProt chain shown

Question: With MRNTGAGPSPSVSRPPPSAAPLSGAALAAPGDAPSALYAPSALVLTVGKGVSATTAAPERAVTLTCAPGPSGTHPAAGSACADLAAVGGDLNALTRGEDVMCPMVYDPVLLTVNGVWQGKRVSYERVFSNECEMNAHGSSVFAF [D114N] as the variant, how does the Tm read?
Answer: 45.1 °C

Question: And the “change of melting temperature, mutant” value?
Answer: -0.2 °C

Same assay, conditions: Streptomyces albogriseolus; pH 3.04; Thermal; DSC; glycine 25 mM; reversible: yes (70-85%); structure 3SSI; whole UniProt chain shown

Question: What does the source list for MRNTGAGPSPSVSRPPPSAAPLSGAALAAPGDAPSALYAPSALVLTVGKGVSATTAAPERAVTLTCAPGPSGTHPAAGSACADLAAVGGDLNALTRGEDVMCPMVYDPVLLTVNGVWQGKRVSYERVFSNECEMNAHGSSVFAF [D114N]?
Answer: Tm: 46.3 °C; change of melting temperature, mutant - wild type (higher = more stable): -1.29 °C

Same assay, conditions: Streptomyces albogriseolus; pH 3.07; Thermal; DSC; glycine 25 mM; reversible: yes (70-85%); structure 3SSI; whole UniProt chain shown

Question: For MRNTGAGPSPSVSRPPPSAAPLSGAALAAPGDAPSALYAPSALVLTVGKGVSATTAAPERAVTLTCAPGPSGTHPAAGSACADLAAVGGDLNALTRGEDVMCPMVYDPVLLTVNGVWQGKRVSYERVFSNECEMNAHGSSVFAF [D114N], which Tm is on record?
Answer: 47.3 °C

Question: And the “change of melting temperature, mutant” value?
Answer: -1.43 °C

Same assay, conditions: Streptomyces albogriseolus; pH 3.15; Thermal; DSC; glycine 25 mM; reversible: yes (70-85%); structure 3SSI; whole UniProt chain shown

Question: Which results are given for MRNTGAGPSPSVSRPPPSAAPLSGAALAAPGDAPSALYAPSALVLTVGKGVSATTAAPERAVTLTCAPGPSGTHPAAGSACADLAAVGGDLNALTRGEDVMCPMVYDPVLLTVNGVWQGKRVSYERVFSNECEMNAHGSSVFAF [D114N]?
Answer: Tm: 50.2 °C; change of melting temperature, mutant - wild type (higher = more stable): -1.03 °C

Same assay, conditions: Streptomyces albogriseolus; pH 3.16; Thermal; DSC; glycine 25 mM; reversible: yes (70-85%); structure 3SSI; whole UniProt chain shown

Question: Which Tm does the source give for MRNTGAGPSPSVSRPPPSAAPLSGAALAAPGDAPSALYAPSALVLTVGKGVSATTAAPERAVTLTCAPGPSGTHPAAGSACADLAAVGGDLNALTRGEDVMCPMVYDPVLLTVNGVWQGKRVSYERVFSNECEMNAHGSSVFAF [D114N] here?
Answer: 49.9 °C

Question: What about the “change of melting temperature, mutant” value of the same variant?
Answer: -2.28 °C

Same assay, conditions: Streptomyces albogriseolus; pH 3.19; Thermal; DSC; glycine 25 mM; reversible: yes (70-85%); structure 3SSI; whole UniProt chain shown

Question: With MRNTGAGPSPSVSRPPPSAAPLSGAALAAPGDAPSALYAPSALVLTVGKGVSATTAAPERAVTLTCAPGPSGTHPAAGSACADLAAVGGDLNALTRGEDVMCPMVYDPVLLTVNGVWQGKRVSYERVFSNECEMNAHGSSVFAF [D114N] as the variant, how does the Tm read?
Answer: 51.4 °C

Question: What about the “change of melting temperature, mutant” value of the same variant?
Answer: -1.95 °C

Same assay, conditions: Streptomyces albogriseolus; pH 3.2; Thermal; DSC; glycine 25 mM; reversible: yes (70-85%); structure 3SSI; whole UniProt chain shown

Question: Which results are given for MRNTGAGPSPSVSRPPPSAAPLSGAALAAPGDAPSALYAPSALVLTVGKGVSATTAAPERAVTLTCAPGPSGTHPAAGSACADLAAVGGDLNALTRGEDVMCPMVYDPVLLTVNGVWQGKRVSYERVFSNECEMNAHGSSVFAF [D114N]?
Answer: Tm: 51.3 °C; change of melting temperature, mutant - wild type (higher = more stable): -2.3 °C

Same assay, conditions: Streptomyces albogriseolus; pH 3.21; Thermal; DSC; glycine 25 mM; reversible: yes (70-85%); structure 3SSI; whole UniProt chain shown

Question: For MRNTGAGPSPSVSRPPPSAAPLSGAALAAPGDAPSALYAPSALVLTVGKGVSATTAAPERAVTLTCAPGPSGTHPAAGSACADLAAVGGDLNALTRGEDVMCPMVYDPVLLTVNGVWQGKRVSYERVFSNECEMNAHGSSVFAF [D114N], which Tm is on record?
Answer: 51.3 °C

Question: What about the “change of melting temperature, mutant” value of the same variant?
Answer: -2.07 °C

Same assay, conditions: Streptomyces albogriseolus; pH 7; Thermal; DSC; phosphate 25 mM; reversible: yes (70-85%); structure 3SSI; whole UniProt chain shown

Question: Which Tm does the source give for MRNTGAGPSPSVSRPPPSAAPLSGAALAAPGDAPSALYAPSALVLTVGKGVSATTAAPERAVTLTCAPGPSGTHPAAGSACADLAAVGGDLNALTRGEDVMCPMVYDPVLLTVNGVWQGKRVSYERVFSNECEMNAHGSSVFAF [D114N] here?
Answer: 83.1 °C

Question: And the “change of melting temperature, mutant” value?
Answer: 1.07 °C

Same assay, conditions: Streptomyces albogriseolus; pH 9.5; Thermal; DSC; glycine 25 mM; reversible: yes (70-85%); structure 3SSI; whole UniProt chain shown

Question: Which results are given for MRNTGAGPSPSVSRPPPSAAPLSGAALAAPGDAPSALYAPSALVLTVGKGVSATTAAPERAVTLTCAPGPSGTHPAAGSACADLAAVGGDLNALTRGEDVMCPMVYDPVLLTVNGVWQGKRVSYERVFSNECEMNAHGSSVFAF [D114N]?
Answer: Tm: 82.6 °C; change of melting temperature, mutant - wild type (higher = more stable): 1.88 °C

Same assay, conditions: Streptomyces albogriseolus; pH 9.75; Thermal; DSC; glycine 25 mM; reversible: yes (70-85%); structure 3SSI; whole UniProt chain shown

Question: Which Tm does the source give for MRNTGAGPSPSVSRPPPSAAPLSGAALAAPGDAPSALYAPSALVLTVGKGVSATTAAPERAVTLTCAPGPSGTHPAAGSACADLAAVGGDLNALTRGEDVMCPMVYDPVLLTVNGVWQGKRVSYERVFSNECEMNAHGSSVFAF [D114N] here?
Answer: 82.3 °C

Question: And the “change of melting temperature, mutant” value?
Answer: 2.06 °C
